Measured values: the supplement of paper PMC9112550, “Optimization of the antimicrobial peptide Bac7 by deep mutational scanning” (BMC Biology, 2022)

Tested on: Escherichia coli TOP10
Assay: shrunken log2 fold change of peptide-encoding DNA abundance (4.5 h post-induction vs induction); higher = less antimicrobial activity (less host growth inhibition)
Settings: time post-induction: 4.5 h; library: site-saturation at positions 5, 18, 19, 20
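Also: peptides expressed intracellularly from a pBAD plasmid library in pooled LB shake-flask culture, induced with 0.3% L-arabinose, DNA abundance read by NGS, three biological replicates, DESeq2 with apeglm shrinkage.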

In the case of RRIRKRPPRLPRPRPRPKDAPRP, the “shrunken log2 fold change” value is reported as -0.0585.

With RRIRKRPPRLPRPRPRPKDSPRP the “shrunken log2 fold change” value was 0.218.

In the case of RRIRKRPPRLPRPRPRPKEAPRP, the “shrunken log2 fold change” value is reported as 0.334.

In the case of RRIRKRPPRLPRPRPRPKFYPRP, the “shrunken log2 fold change” value is reported as -0.0589.

For RRIRKRPPRLPRPRPRPKGCPRP, the “shrunken log2 fold change” value was 0.0534.

For RRIRKRPPRLPRPRPRPKGDPRP, the “shrunken log2 fold change” value was -0.0351.

With RRIRKRPPRLPRPRPRPKHMPRP the “shrunken log2 fold change” value was 0.03.

With RRIRKRPPRLPRPRPRPKHYPRP the “shrunken log2 fold change” value was -0.283.

With RRIRKRPPRLPRPRPRPKIIPRP the “shrunken log2 fold change” value was -0.135.

With RRIRKRPPRLPRPRPRPKIQPRP the “shrunken log2 fold change” value was 0.113.

RRIRKRPPRLPRPRPRPKISPRP was tested, and the “shrunken log2 fold change” value was -0.0246.

In the case of RRIRKRPPRLPRPRPRPKLAPRP, the “shrunken log2 fold change” value is reported as 1.58.

For RRIRKRPPRLPRPRPRPKLNPRP, the “shrunken log2 fold change” value was 0.218.

In the case of RRIRKRPPRLPRPRPRPKMNPRP, the “shrunken log2 fold change” value is reported as 0.2.

With RRIRKRPPRLPRPRPRPKPAPRP the “shrunken log2 fold change” value was 1.11.

In the case of RRIRKRPPRLPRPRPRPKRAPRP, the “shrunken log2 fold change” value is reported as 1.04.

With RRIRKRPPRLPRPRPRPKRQPRP the “shrunken log2 fold change” value was 0.0282.

RRIRKRPPRLPRPRPRPKSLPRP was tested, and the “shrunken log2 fold change” value was 0.107.

For RRIRKRPPRLPRPRPRPKTAPRP, the “shrunken log2 fold change” value was 0.2.

For RRIRKRPPRLPRPRPRPKVPPRP, the “shrunken log2 fold change” value was 0.225.

RRIRKRPPRLPRPRPRPKVRPRP was tested, and the “shrunken log2 fold change” value was 0.131.

In the case of RRIRKRPPRLPRPRPRPKWVPRP, the “shrunken log2 fold change” value is reported as 0.339.

With RRIRKRPPRLPRPRPRPKYNPRP the “shrunken log2 fold change” value was -0.267.

With RRIRKRPPRLPRPRPRPLAPPRP the “shrunken log2 fold change” value was 0.65.

In the case of RRIRKRPPRLPRPRPRPLARPRP, the “shrunken log2 fold change” value is reported as 0.213.

For RRIRKRPPRLPRPRPRPLDCPRP, the “shrunken log2 fold change” value was -0.0764.

RRIRKRPPRLPRPRPRPLDVPRP was tested, and the “shrunken log2 fold change” value was 0.0117.

For RRIRKRPPRLPRPRPRPLFPPRP, the “shrunken log2 fold change” value was 0.161.

In the case of RRIRKRPPRLPRPRPRPLGEPRP, the “shrunken log2 fold change” value is reported as 0.445.

In the case of RRIRKRPPRLPRPRPRPLGTPRP, the “shrunken log2 fold change” value is reported as 0.388.

For RRIRKRPPRLPRPRPRPLGVPRP, the “shrunken log2 fold change” value was 0.438.

With RRIRKRPPRLPRPRPRPLHFPRP the “shrunken log2 fold change” value was -0.258.

With RRIRKRPPRLPRPRPRPLHGPRP the “shrunken log2 fold change” value was -0.0122.

For RRIRKRPPRLPRPRPRPLIHPRP, the “shrunken log2 fold change” value was 1.09.

For RRIRKRPPRLPRPRPRPLIKPRP, the “shrunken log2 fold change” value was -0.338.

With RRIRKRPPRLPRPRPRPLIPPRP the “shrunken log2 fold change” value was -0.000217.

With RRIRKRPPRLPRPRPRPLITPRP the “shrunken log2 fold change” value was 0.0992.

For RRIRKRPPRLPRPRPRPLKKPRP, the “shrunken log2 fold change” value was 0.0649.

For RRIRKRPPRLPRPRPRPLKQPRP, the “shrunken log2 fold change” value was 0.146.

With RRIRKRPPRLPRPRPRPLLEPRP the “shrunken log2 fold change” value was 0.241.

RRIRKRPPRLPRPRPRPLLKPRP was tested, and the “shrunken log2 fold change” value was 0.00409.

RRIRKRPPRLPRPRPRPLPAPRP was tested, and the “shrunken log2 fold change” value was 1.13.

In the case of RRIRKRPPRLPRPRPRPLQLPRP, the “shrunken log2 fold change” value is reported as 0.166.

With RRIRKRPPRLPRPRPRPLRHPRP the “shrunken log2 fold change” value was 0.35.

With RRIRKRPPRLPRPRPRPLSAPRP the “shrunken log2 fold change” value was 0.402.

In the case of RRIRKRPPRLPRPRPRPLSEPRP, the “shrunken log2 fold change” value is reported as 0.251.

With RRIRKRPPRLPRPRPRPLTGPRP the “shrunken log2 fold change” value was -0.0975.

With RRIRKRPPRLPRPRPRPLVYPRP the “shrunken log2 fold change” value was -0.23.

With RRIRKRPPRLPRPRPRPLYCPRP the “shrunken log2 fold change” value was -0.237.

With RRIRKRPPRLPRPRPRPMCAPRP the “shrunken log2 fold change” value was 0.583.

For RRIRKRPPRLPRPRPRPMCCPRP, the “shrunken log2 fold change” value was -0.178.

With RRIRKRPPRLPRPRPRPMDEPRP the “shrunken log2 fold change” value was 0.966.

In the case of RRIRKRPPRLPRPRPRPMDMPRP, the “shrunken log2 fold change” value is reported as 0.15.

RRIRKRPPRLPRPRPRPMFWPRP was tested, and the “shrunken log2 fold change” value was 0.173.

RRIRKRPPRLPRPRPRPMILPRP was tested, and the “shrunken log2 fold change” value was -0.388.

RRIRKRPPRLPRPRPRPMMQPRP was tested, and the “shrunken log2 fold change” value was 0.405.

For RRIRKRPPRLPRPRPRPMNEPRP, the “shrunken log2 fold change” value was 0.22.

For RRIRKRPPRLPRPRPRPMNMPRP, the “shrunken log2 fold change” value was -0.0791.

In the case of RRIRKRPPRLPRPRPRPMNRPRP, the “shrunken log2 fold change” value is reported as -0.029.

RRIRKRPPRLPRPRPRPMQLPRP was tested, and the “shrunken log2 fold change” value was 0.197.
